Measurements from the supplement of paper PMC9170038.

System: MS2 coat protein
Assay: apparent KD of MS2 coat protein; designed switch direction (-1 OFF switch, 1 ON switch): -1; higher = weaker reporter binding
Summary of the method: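 Each step of the titration lasted 0.8–1.5 h at the lowest concentration and 10–20 min at the highest. The protein, SNAP-549-labelled MS2 coat protein, went from 0.7 or 1.5 nM doubling to 3 µM over RNA switches transcribed on Illumina chips by stalled E. coli RNA polymerase. Normalised cluster fluorescence was curve-fitted, and the per-design median over clusters is given as apparent KD.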

[1] = Eterna round: R95, input ligand: microRNA oligo, concentration not stated
[2] = input ligand: microRNA oligo, concentration not stated

Sequence	apparent KD of MS2 coat protein [1]	apparent KD of MS2 coat protein (input ligand: FMN 200 uM)	apparent KD of MS2 coat protein (input ligand: none)	further results
UUUCGGCGGACCGUGGCUUUUUGCUCGUCUUAUGCUACGACAUGAGGAUCACCCAUGUGGUGGUGGUCCGUUGUUGU [Grok-var2-11 mod JAL] (puzzle: Sensor v3, turn-off variant 2)	10.4 nM			apparent KD of MS2 coat protein (Eterna round: R95, input ligand: FMN 200 uM): 59.7 nM; apparent KD of MS2 coat protein (Eterna round: R95, input ligand: none): 39.7 nM
UUUCGUGUGCGGGCUUUUUACAUGAGGAUCACCCAUGUCCUCUGCUUGUCUUGUCUUGGGCUUUUUUUGGGUUCGGG [-19.4, -42 kcal, A 8%] (Eterna round: R97, puzzle: Sensor, turn-off variant 1)		560 nM	836 nM	
UUUCUUAAGUGGUCGCUUCACAUGAGGAUCACCCAUGUCGCCUCUAUGGCAUUAAAUACGAGCUUUUUGCUUGAAUU [Eternabot (L1) Solution 14] (Eterna round: R97, puzzle: Sensor, turn-off variant 1)		312 nM	385 nM	
UUUGAGUUAGGAUAUGCCAAGUUGCACAUGAGGAUCACCCAUGUGAGGUGCCUUACUUAAGCAGAAGGAACAAUAA [EX5 C.13] (Eterna round: R97, puzzle: Exclusion 5)		22.1 nM	19.8 nM	
UUUGGUGUAGGAUAUACAUGAGGAUCACCCAUGUGCUCCUGCGAGUUCGAAUCCAAAGGUAGAAGGGCGCUAAU [Eternabot (L2) Solution 83] (Eterna round: R97, puzzle: Exclusion 3)		23.3 nM	21.2 nM	
UUUGUCUGUGUGAGGAUAUACUUGUUUGGGUUUUUGUAGAAGGCACAUGAGGAUCACCCAUGUAUUUUGUUGUG [JR_BME4_Sub017] (Eterna round: R96, puzzle: Brourd's mod of Exclusion 4)		86.5 nM	55.9 nM	apparent KD of MS2 coat protein [2]: 47.7 nM
UUUGUCUGUGUGAGGAUAUACUUGUUUGGGUUUUUGUAGAAGGCACAUGAGGAUCACCCAUGUAUUUUGUUGUG [JR_BME4_Sub017] (puzzle: Brourd's mod of Exclusion 4)	49.7 nM			
UUUGUGUCAGGAUAUGAGUAGUAGAACAAUAGUACUACUACUCAGAAGGGACAUGAGGAUCACCCAUGUUCCUC [Fiskers Ex 4 Super stable 44 mod 21] (puzzle: Exclusion 4)	19 nM			
UUUGUUGUUGUGAGGAUAUCGUAGUUAUUUUGAAACGAGAAGGCACAUGAGGAUCACCCAUGUUUGUUGAUGGU [JR_BMOE4_Sub062] (puzzle: Brourd's mod of Exclusion 4)	32.4 nM			
UUUGUUUAUGUAGGAUAUGCCUGGCGUGCCUUUGCAGAAGGACAUGAGGAUCACCCAUGUAACAUGAGGCUCACCCAUGUCGCG [salish99_ExNG1_r04_112] (Eterna round: R96, puzzle: Exclusion NG 1)		285 nM	277 nM	apparent KD of MS2 coat protein [2]: 152 nM
UUUUAACAUGAGGAUCACCCAUGUGAGGAUAUCGAAAUUUAUAUUAAUAUUAAUUAUUCGAGAAGGCACAUUUU [JMF 29] (puzzle: Exclusion 1)	114 nM			
UUUUAACAUGAGGAUCACCCAUGUGAGGAUAUCGAAAUUUAUAUUAAUAUUAUUAAUACGAGAAGGCACAUUUU [JMF 38] (puzzle: Exclusion 1)	36.2 nM			
UUUUAACAUGAGGAUCACCCAUGUGAGGAUAUCGAAAUUUAUAUUAAUAUUUAUAAUUCGAGAAGGCACAUUUU [JMF 53] (puzzle: Exclusion 1)	155 nM			
UUUUAACAUGAGGAUCACCCAUGUGAGGAUAUCGAAAUUUAUAUUAAUAUUUAUAUAUCGAGAAGGCACAUUUU [JMF 56] (puzzle: Exclusion 1)	117 nM			
UUUUAACAUGAGGAUCACCCAUGUGAGGAUAUCGAAAUUUAUAUUUAUAUUAAUUUAACGAGAAGGCACAUUUU [JMF 87] (puzzle: Exclusion 1)	84.4 nM			
UUUUAAUAUGAAGGAUAUACUUAACAUGAGGAUCACCCAUGUGGUGUUGUGAGUGAGUGAGUUUAGUAGAAGGUCAAUGAUUUU [JMF's solution 69] (Eterna round: R96, puzzle: Exclusion NG 2)		638 nM	252 nM	apparent KD of MS2 coat protein [2]: 381 nM
UUUUACAGGCUUAGAUCCUACAUGAGGAUCACCCAUGUGGAGGCGUGUCGUGAGACAUGCCUCUAAGCUCGUCUUGU [JL TOV1 3.74] (Eterna round: R97, puzzle: Sensor, turn-off variant 1)		86.2 nM	103 nM	
UUUUACAGGCUUAGAUCCUACAUGAGGAUCACCCAUGUGGUCCGGUGACGUGAGUCACCGGACUAAGCUCGUCUUGU [JL TOV1 3.72] (Eterna round: R97, puzzle: Sensor, turn-off variant 1)		156 nM	143 nM	
UUUUACAUAGGAUAUAGUUUCUUUUACAUGAGGAUCACCCAUGUCUCUCCUCUCUCUCUUCUAGAAGGAUGUUUCU [JR_E5_Sub012] (puzzle: Exclusion 5)	86.1 nM			
UUUUACAUAGGAUAUAGUUUGUUGUACAUGAGGAUCACCCAUGUUGUUGGUUGUGCUGUUCUAGAAGGAUGUUUCU [JR_E5_Sub014] (puzzle: Exclusion 5)	37.3 nM			
UUUUACAUGCUGAGAUCCUACAUGAGGAUCACCCAUGUGGUCCGGUGACGUGAGUCACCGGACUUAGCUCGUCUUGU [salish99_S_TOV1_R5_099] (Eterna round: R97, puzzle: Sensor, turn-off variant 1)		186 nM	304 nM	
UUUUACUUAGGAUAUACAUUUUUUUAUUUAUUUAUAAUAUUACAUGAGGAUCACCCAUGUAGAAGGGAGAUUUU [My Design] (Eterna round: R96, puzzle: Exclusion 2)		76.9 nM	72.3 nM	apparent KD of MS2 coat protein [2]: 64.3 nM
UUUUACUUAGGAUAUACAUUUUUUUAUUUAUUUAUAAUAUUACAUGAGGAUCACCCAUGUAGAAGGGAGAUUUU [My Design] (puzzle: Exclusion 2)	78.1 nM			
UUUUAGAGAGGAUAUAUAAAGUGAAACAUGAGGAUCACCCAUGUAAUUUUAUGGAUGUAAAUAGAAGGCUCAUUUA [JL-ex5-3.01] (puzzle: Exclusion 5)	34.3 nM			
UUUUAGCAAGCGAGUAUUAACAUGAGGAUCACCCAUGUGCAUCCAGUAUUACUUUUAGAUCUUGCUCGUCUUAUAUA [JR_STOV1_v2_Sub083] (Eterna round: R97, puzzle: Sensor, turn-off variant 1)		339 nM	381 nM	
UUUUAGGCAGGAUAUACAUGAGGAUCACCCAUGUAAAUUUUUCGUUUAACUUGAAUGUGUAGAAGGGCCAUUUU [Ex3 #59] (Eterna round: R97, puzzle: Exclusion 3)		20.7 nM	20.2 nM	
